Biological target: T1, recombinant B. taurus beta casein with HA tag, 6 histidine tag and HDEL peptide, produced by pMOZ702 in N. benthamiana leaf
T1 chain: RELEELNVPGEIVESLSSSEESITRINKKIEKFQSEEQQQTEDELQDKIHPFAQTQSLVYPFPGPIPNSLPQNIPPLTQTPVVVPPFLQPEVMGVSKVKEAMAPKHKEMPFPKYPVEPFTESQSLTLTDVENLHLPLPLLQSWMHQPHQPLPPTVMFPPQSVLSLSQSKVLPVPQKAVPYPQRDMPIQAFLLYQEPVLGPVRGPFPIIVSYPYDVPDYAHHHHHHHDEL

B1: recombinant H. sapiens Fam20A expressed from pMOZ12 (protein)
chain: QLRPRERPRGCPCTGRASSLARDSAAAASDPGTIVHNFSRTEPRTEPAGGSHSGSSSKLQALFAHPLYNVPEEPPLLGAEDSLLASQEALRYYRRKVARWNRRHKMYREQMNLTSLDPPLQLRLEASWVQFHLGINRHGLYSRSSPVVSKLLQDMRHFPTISADYSQDEKALLGACDCTQIVKPSGVHLKLVLRFSDFGKAMFKPMRQQRDEETPVDFFYFIDFQRHNAEIAAFHLDRILDFRRVPPTVGRIVNVTKEILEVTKNEILQSVFFVSPASNVCFFAKCPYMCKTEYAVCGNPHLLEGSLSAFLPSLNLAPRLSVPNPWIRSYTLAGKEEWEVNPLYCDTVKQIYPYNNSQRLLNVIDMAIFDFLIGNMDRHHYEMFTKFGDDGFLIHLDNARGFGRHSHDEISILSPLSQCCMIKKKTLLHLQLLAQADYRLSDVMRESLLEDQLSPVLTEPHLLALDRRLQTILRTVEGCIVAHGQQSVIVDGPVEQLAPDSGQANLTSHDEL
  Western blot band migration of beta casein; HsFam20A coexpressed together with HsFam20C in tobacco leaf (FIG. 19, lanes 3 and 4): In lanes containing beta casein coexpressed with the human kinases the bands are shifted upward on the gel relative to the sample transformed with only beta casein
  Western blot band migration of beta casein; HsFam20A coexpressed together with HsFam20C in tobacco leaf (FIG. 20, lane 8, '2 human kinases'): In lanes containing beta casein coexpressed with 1 human kinase, 2 human kinases, 1 bovine kinase or 2 bovine kinases the bands are shifted upward on the gel relative to the sample transformed with only beta casein

B2: recombinant B. taurus Fam20C expressed from pMOZ14 (protein)
chain: MLLPKLERSAARPSGEPGCSCAQPAAEAAAPGWAQARGHPGGELEAAASAAGDAGWPNKHTLRILQDFSSDPSSNLTSHSLEKLPPAAEAAEGAPPGQDPGVRRPPDPAHRPLPRDPGPRGPVLPPGLSGDGSLLTRLFQHPLYQVPIPPLTEGDVLFNVNSDIRFNPKAATAENPDWPHEGPEDEFLPTGEAAVDSYPNWLKFHIGINRYELYSRHNPAVGALLQDLGTQKITSVAMKSGGTQLKLIMTFQNYGQALFKPMKQTREQETPPDFFYFSDYERHNAEIAAFHLDRILDFRRVPPVAGRLVNMTKEIRDVTRDKKLWRTFFISPANNVCFYGECSYYCSTEHALCGKPDQIEGSLAAFLPDLALAKRKTWRNPWRRSYHKRKKAEWEVDPDYCEEVRQTPPYDSSHRLLDVMDMTIFDFLMGNMDRHHYETFEKFGNETFIIHLDNGRGFGKHSHDELSILVPLQQCCRIRRSTYLRLQLLAQEEHRLSLLMAEALRADRVAPVLFQPHLEALDRRLRIVLRAVGDCVEKDGLHSVVEDDLGPEHRAAAGRHDEL
  Western blot band migration of beta casein; BtFam20C coexpressed together with BtFam20A in tobacco leaf (FIG. 20, lane 7, '2 bovine kinases'): In lanes containing beta casein coexpressed with 1 human kinase, 2 human kinases, 1 bovine kinase or 2 bovine kinases the bands are shifted upward on the gel relative to the sample transformed with only beta casein

B3: recombinant B. taurus Fam20A expressed from pMOZ15 (protein)
chain: MHVSSHLGPRVRSRLQPRERPLGCPCARRAASPAPGPAPSAPRRVEPSGGGDPGSKLRALFAHPLYNEPEEPPLLGPEDSLLAGPEALRYYRRKVARWNRRRKMYKEQLNLTSPEPPVQLRQEASWVQFHLGINRHGLYPRSSPVVSKLLQDMRHFPTISADYSQDEKALLGACDCSQIVKPSGVHLKLVLRFSDFGKAMFKPMRQQRDEETPEDFFYFIDFQRHNAEIAAFHLDRILDFRRVPPTVGRLVNVTREILEVTRNEILQSVFFVSPANNVCFFAKCPYMCKTEYAVCGSPHLLEGSLSAFLPSLNLAPRFSMPSPWIRSYSLAGREEWEVNPLYCEAVKQAYPHNSSSRLLNIIDMAIFDFLIGNMDRHHYEMFTKFGEDGFLIHLDNARGFGRHSHDEVSILAPLFQCCRIKRKTLLHLQLLAQADYRLSDVMRESLLEDQLSPVLTEPHLLALDRRLQTVLRTVQDCIEAHGEQSVVADGPVGQWAPDSSRANATSHDEL
  Western blot band migration of beta casein; BtFam20A coexpressed together with BtFam20C in tobacco leaf (FIG. 20, lane 7, '2 bovine kinases'): In lanes containing beta casein coexpressed with 1 human kinase, 2 human kinases, 1 bovine kinase or 2 bovine kinases the bands are shifted upward on the gel relative to the sample transformed with only beta casein

B4: recombinant H. sapiens Fam20C expressed from pMOZ11 (protein)
chain: LDLLPRLERRGARPSGEPGCSCAQPAAEVAAPGWAQVRGRPGEPPAASSAAGDAGWPNKHTLRILQDFSSDPSSNLSSHSLEKLPPAAEPAERALRGRDPGALRPHDPAHRPLLRDPGPRRSESPPGPGGDASLLARLFEHPLYRVAVPPLTEEDVLFNVNSDTRLSPKAAENPDWPHAGAEGAEFLSPGEAAVDSYPNWLKFHIGINRYELYSRHNPAIEALLHDLSSQRITSVAMKSGGTQLKLIMTFQNYGQALFKPMKQTREQETPPDFFYFSDYERHNAEIAAFHLDRILDFRRVPPVAGRMVNMTKEIRDVTRDKKLWRTFFISPANNICFYGECSYYCSTEHALCGKPDQIEGSLAAFLPDLSLAKRKTWRNPWRRSYHKRKKAEWEVDPDYCEEVKQTPPYDSSHRILDVMDMTIFDFLMGNMDRHHYETFEKFGNETFIIHLDNGRGFGKYSHDELSILVPLQQCCRIRKSTYLRLQLLAKEEYKLSLLMAESLRGDQVAPVLYQPHLEALDRRLRVVLKAVRDCVERNGLHSVVDDDLDTEHRAASARHDEL
  Western blot band migration of beta casein; HsFam20C alone coexpressed in tobacco leaf (FIG. 20, lane 5, '1 human kinase'): In lanes containing beta casein coexpressed with 1 human kinase, 2 human kinases, 1 bovine kinase or 2 bovine kinases the bands are shifted upward on the gel relative to the sample transformed with only beta casein
  Western blot band migration of beta casein; HsFam20C coexpressed together with HsFam20A in tobacco leaf (FIG. 19, lanes 3 and 4): In lanes containing beta casein coexpressed with the human kinases the bands are shifted upward on the gel relative to the sample transformed with only beta casein
  Western blot band migration of beta casein; HsFam20C coexpressed together with HsFam20A in tobacco leaf (FIG. 20, lane 8, '2 human kinases'): In lanes containing beta casein coexpressed with 1 human kinase, 2 human kinases, 1 bovine kinase or 2 bovine kinases the bands are shifted upward on the gel relative to the sample transformed with only beta casein

— patent US20220290167
